Source: doi:10.1101/2024.07.31.606000
pKd: −log10 of the molar value.

Target: recombinant full-length thrombospondin-1 (human) (UniProt P07996)
Experiment: SPR

Chain of recombinant full-length thrombospondin-1 (human) (P07996 19-1170): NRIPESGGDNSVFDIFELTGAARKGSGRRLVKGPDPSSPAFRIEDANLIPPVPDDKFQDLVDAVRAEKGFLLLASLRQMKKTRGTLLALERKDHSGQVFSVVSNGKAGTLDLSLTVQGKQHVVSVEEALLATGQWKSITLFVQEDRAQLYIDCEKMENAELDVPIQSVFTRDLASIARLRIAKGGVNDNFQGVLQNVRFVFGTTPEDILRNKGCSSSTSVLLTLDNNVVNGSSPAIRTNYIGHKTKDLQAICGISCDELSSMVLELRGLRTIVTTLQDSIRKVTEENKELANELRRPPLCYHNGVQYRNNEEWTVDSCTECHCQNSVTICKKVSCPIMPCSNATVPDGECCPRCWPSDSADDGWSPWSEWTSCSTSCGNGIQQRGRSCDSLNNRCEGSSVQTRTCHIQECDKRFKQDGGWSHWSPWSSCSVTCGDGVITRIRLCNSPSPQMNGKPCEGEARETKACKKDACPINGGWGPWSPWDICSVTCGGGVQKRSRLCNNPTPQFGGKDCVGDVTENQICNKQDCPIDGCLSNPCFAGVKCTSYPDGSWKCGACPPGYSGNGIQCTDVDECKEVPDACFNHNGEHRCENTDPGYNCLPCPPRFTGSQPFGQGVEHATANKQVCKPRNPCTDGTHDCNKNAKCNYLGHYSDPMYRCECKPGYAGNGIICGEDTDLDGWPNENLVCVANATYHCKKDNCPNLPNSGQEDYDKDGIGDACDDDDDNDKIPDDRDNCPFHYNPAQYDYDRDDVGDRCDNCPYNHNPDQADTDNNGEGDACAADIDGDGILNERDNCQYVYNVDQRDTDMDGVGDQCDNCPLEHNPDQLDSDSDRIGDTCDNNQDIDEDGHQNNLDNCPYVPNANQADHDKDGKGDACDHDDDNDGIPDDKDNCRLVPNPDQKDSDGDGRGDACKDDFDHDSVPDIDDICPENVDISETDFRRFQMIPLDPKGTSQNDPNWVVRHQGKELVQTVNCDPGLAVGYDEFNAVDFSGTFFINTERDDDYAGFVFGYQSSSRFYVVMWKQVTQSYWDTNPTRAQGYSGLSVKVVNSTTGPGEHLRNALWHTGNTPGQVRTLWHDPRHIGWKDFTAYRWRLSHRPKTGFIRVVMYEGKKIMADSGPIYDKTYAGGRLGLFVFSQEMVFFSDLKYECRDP

pKd	Substance
6.90	complement C3 (natural protein)
7.33	complement C5 (natural protein)
